{
  "source": "paper PMC7525159",
  "molecular_target": "T1, RegX3 (K204A) K204A (UniProt P9WGL9)",
  "T1 sequence": "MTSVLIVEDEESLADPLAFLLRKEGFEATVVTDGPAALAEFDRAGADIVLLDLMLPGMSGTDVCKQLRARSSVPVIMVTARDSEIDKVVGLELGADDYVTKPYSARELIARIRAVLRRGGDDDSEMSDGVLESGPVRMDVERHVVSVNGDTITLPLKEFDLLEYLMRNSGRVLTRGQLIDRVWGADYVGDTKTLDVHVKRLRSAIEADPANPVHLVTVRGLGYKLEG",
  "assay": "EMSA",
  "data": [
    {"sequence": "CAGCTTTCTTTGCGCTAATTTAGGCGTACTCACAGCATGGGATGACCTGGGCAAATACCTCATCTATCCGCCCGGGATAGCATGCGGCGCAGGCGGCGAATGCGGCGCAGATGAACGCAGAGTTAATTCTCACGCAACGGTCCGATATTG (double strand) [whiB3 promoter -307 to -157 (WT)]", "values": [
      {"measurement": "binding", "value": "no binding"}
    ]}
  ]
}
